The target of assay [1] is recombinant mature human GDF-15 protein derived from expression in E. coli (human) (UniProt Q99988). Put plainly: SPR (Biorad ProteOn XPR36), GDF-15 immobilised on GLC chip, antibody as analyte.
In assay [2] the target is T1, recombinant mature human GDF-15 protein (derived from Baculovirus-transfected HighFive insect cells) (human, UniProt Q99988 197-308).
T1 construct: also called recombinant human GDF-15; GDF-15 derived from insect cell expression
T1 sequence: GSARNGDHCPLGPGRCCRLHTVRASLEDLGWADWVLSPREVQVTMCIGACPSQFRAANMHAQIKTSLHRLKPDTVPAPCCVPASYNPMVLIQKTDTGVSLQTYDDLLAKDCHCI
Put plainly: SPR (Biorad ProteOn XPR36), KD=koff/kon. From the text:
(§1) For preparing the biosensors recombinant mature human GDF-15 protein was immobilized on flow cells 1 and 2. On one flow cell recombinant GDF-15 derived from Baculvirus-transfected insect cells (HighFive insect cells) and on the other recombinant protein derived from expression in E. coli was used. The GLC sensor chip was activated using Sulfo-NHS (N-Hydroxysulfosuccinimide) and EDC (1-Ethyl-3-[3-dimethylaminopropyl]carbodiimide hydrochloride) (Biorad ProteOn Amine Coupling Kit) according to the manufacturer's recommendation, the sensor surface was subsequently loaded with the proteins up to a density of about 600 RU (1 Ru=1 pg mm⁻²). The non-reacted coupling groups were then quenched by perfusion with 1M ethanolamine pH 8.5 and the biosensor was equilibrated by perfusing the chip with running buffer ([…], 150 mM NaCl, 3.4 mM EDTA, 0.005% Tween-20, pH 7.4, referred to as HBS150). […] The resulting sensogram was analyzed using the software ProteOn Manager version 3.0. […] For the association rate constant a value of 5.4±0.06×10⁵ M⁻¹ s⁻¹ (kₒₙ) and for the dissociation rate constant a value of 4.3±0.03×10⁻⁴ s⁻¹ (koff) could be determined (values are for the interaction of anti-human GDF-15 mAb-B1-23 with GDF-15 derived from insect cell expression).

Assay [3] has as its target T1, recombinant mature human GDF-15 protein …. Put plainly: SPR (Biorad ProteOn XPR36), GDF-15 immobilised on GLC chip, antibody as analyte, 25 °C, 1:1 Langmuir.
Excerpt: as §1

B1: monoclonal anti-human GDF-15 mAb-B1-23 (antibody, V domains shown)
VH: QVKLQQSGPGILQSSQTLSLTCSFSGFSLSTSGMGVSWIRQPSGKGLEWLAHIYWDDDKRYNPTLKSRLTISKDPSRNQVFLKITSVDTADTATYYCARSSYGAMDYWGQGTSVTVSS
VL: DIVLTQSPKFMSTSVGDRVSVTCKASQNVGTNVAWFLQKPGQSPKALIYSASYRYSGVPDRFTGSGSGTDFTLTISNVQSEDLAEYFCQQYNNFPYTFGGGTKLEIK
notes: also called antibody B1-23; monoclonal mouse antibody GDF-15
Consider B1, for which, in assay [1], the deviation of rate constants against GDF-15 derived from insect cells amounted to 45% and the difference of affinity values against GDF-15 derived from insect cells was less than 2 fold. In assay [2], the dissociation constant (Kd) was roughly 0.79 nM. Further, in assay [3], the off-rate constant (koff) came out at 0.00043 s⁻¹ and the kon was 540000 M⁻¹ s⁻¹.

A word on the Kd: it is the equilibrium constant for the complex coming apart. A word on the koff: it is the first-order rate constant of dissociation. In general, kon refers to the second-order rate constant of association.

For the origin of these results see patent US20190160169A1 (JULIUS MAXIMILIANS UNIVERSIT T W RZBURG, published 2019).
